Where two headings read alike, the source gives them in different places.
What was measured:
[1] = target: T1, HER2 (form used in the assay not stated) (human, UniProt P04626 23-652, limits assumed); experiment: method not stated
T1 construct: also called ErbB2

[2] = target: T1, HER2 (form used in the assay not stated); experiment: method not stated; remark: listed apart in the source
[3] = target: T2, HER2 on the surface of HER2 overexpressing cancer cells (BT474) (human, UniProt P04626 23-1255); experiment: flow cytometry on BT474 cells, Alexa488-labelled agent
T2 construct: whole, on cells; also called ErbB2; HER2/Neu

[4] = target: T2, HER2 on the surface of HER2 …; experiment: flow cytometry, dissociation from BT474 cells in the presence of a competing DARPin (FIG. 18A)
Procedure: Corresponding to 100 μl cell suspension, samples were washed twice in 1 ml PBS (0.2% NaN₃, 1% BSA) and centrifuged at 600 g for 30 sec at room temperature. Cells were resuspended in 1 ml PBS (0.2% NaN₃, 1% BSA) containing 100 nM of equivalent unlabeled binding agent. The dissociation reaction was incubated for the indicated times (15, 30, 60, 120, 180 and 240 min) at room temperature while continuously stirring in the dark. Dissociation was stopped by placing the cell pellets on ice. Each sample was washed once with 1 ml cold PBS.

| Binder | Kd [1] [nM] | Kd [2] [nM] | koff [2] [s⁻¹] | kon [2] [M⁻¹ s⁻¹] | Kd [3] [nM] | koff [3] [s⁻¹] | kon [3] [M⁻¹ s⁻¹] | off-rate, times lower than monovalent G3 [4] [fold] |
| --- | --- | --- | --- | --- | --- | --- | --- | --- |
| DARPin 929 (designed binder) MRGSHHHHHHGSDLGKKLLEAARAGQDDEVRILMANGADVNAHDFYGITPLHLAANFGHLEIVEVLLKHGADVNAFDYDNTPLHLAADAGHLEIVEVLLKYGADVNASDRDGHTPLHLAAREGHLEIVEVLLKNGADVNAQDKFGKTAFDISIDNGNEDLAEILQKLN | 1 | 3.8 | 0.0008 | 200000 | 33.5 | 0.00221 | 69000 | – |
| 9_29-(G4S)4-G3 (designed binder, also called 9_20_G) MRGSHHHHHHGSDLGKKLLEAARAGQDDEVRILMANGADVNAHDFYGITPLHLAANFGHLEIVEVLLKHGADVNAFDYDNTPLHLAADAGHLEIVEVLLKYGADVNASDRDGHTPLHLAAREGHLEIVEVLLKNGADVNAQDKFGKTAFDISIDNGNEDLAEILQKLGGGGSGGGGSGGGGSGGGGSRSDLGKKLLEAARAGQDDEVRILMANGADVNAKDEYGLTPLYLATAHGHLEIVEVLLKNGADVNAVDAIGFTPLHLAAFIGHLEIAEVLLKHGADVNAQDKFGKTAFDISIGNGNEDLAEILQKLN | – | – | – | – | – | – | – | 10 |
| 9_26-(G4S)4-G3 (designed binder, also called 6_20_G) MRGSHHHHHHGSDLGKKLLEAARAGQDDEVRILMANGADVNAKDFYGITPLHLAAAYGHLEIVEVLLKHGADVNAHDWNGWTPLHLAAKYGHLEIVEVLLKHGADVNAIDNAGKTPLHLAAAHGHLEIVEVLLKYGADVNAQDKFGKTAFDISIDNGNEDLAEILQKLGGGGSGGGGSGGGGSGGGGSRSDLGKKLLEAARAGQDDEVRILMANGADVNAKDEYGLTPLYLATAHGHLEIVEVLLKNGADVNAVDAIGFTPLHLAAFIGHLEIAEVLLKHGADVNAQDKFGKTAFDISIGNGNEDLAEILQKLN | – | – | – | – | – | – | – | 10 |
